Biological target: T1, soluble human FcRn (human, UniProt P55899 24-297; P61769 21-119)
T1 construct: Heterodimer of FcRn alpha chain and beta2-microglobulin; also called hFcRn
Test: SPR (Biacore T100), antibody captured by protein L, hFcRn as analyte, pH 7.0, 25 C;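 also: KD calculated from fitted association and dissociation rate constants of the sensorgrams, protein L amine-coupled to the sensor chip, sodium phosphate running buffer with NaCl and Tween20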
Method: An appropriate amount of protein L (ACTIGEN) was immobilized onto Sensor chip CM4 (GE Healthcare) by the amino coupling method, and the chip was allowed to capture an antibody of interest. Then, diluted FcRn solutions and running buffer (as a reference solution) were injected to allow human FcRn to interact with the antibody captured on the sensor chip. The running buffer used comprised 50 mmol/l sodium phosphate, 150 mmol/l NaCl, and 0.05% (w/v) Tween20 (pH 7.0). FcRn was diluted using each buffer. The chip was regenerated using 10 mmol/l glycine-HCl (pH 1.5). Assays were carried out exclusively at 25 degrees C. The association rate constant ka (1/Ms) and dissociation rate constant kd (1/s), both of which are kinetic parameters, were calculated based on the sensorgrams obtained in the assays, and KD (M) of each antibody for human FcRn was determined from these values. Each parameter was calculated using Biacore T100 Evaluation Software (GE Healthcare).

| Binder | Kd |
| --- | --- |
| IgG1-F1271 (antibody, EU numbering; copies: 2 + 2) heavy: QVQLQESGPGLVKPSETLSLTCAVSGHSISHDHAWSWVRQPPGEGLEWIGFISYSGITNYNPSLQGRVTISRDNSKNTLYLQMNSLRAEDTAVYYCARSLARTTAMDYWGEGTLVTVSSASTKGPSVFPLAPSSKSTSGGTAALGCLVKDYFPEPVTVSWNSGALTSGVHTFPAVLQSSGLYSLSSVVTVPSSSLGTQTYICNVNHKPSNTKVDKKVEPKSCDKTHTCPPCPAPELRGGPKVFLFPPKPKDTLYIARTPEVTCVVVDVSHEDPEVKFNWYVDGVEVHNAKTKPREEQYNSTYRVVSVLTVLHQDWLNGKEYKCKVSNKALPAPIEKTISKAKGQPREPQVYTLPPSRDELTKNQVSLTCLVKGFYPSDIAVEWESNGQPENNYKTTPPVLDSDGSFFLYSKLTVDKSRWQQGNVFSCSVMHEALDYHVTRKELSLSP light: not shown | 200 nM |
| IgG1-F1272 (antibody, EU numbering; copies: 2 + 2) heavy: QVQLQESGPGLVKPSETLSLTCAVSGHSISHDHAWSWVRQPPGEGLEWIGFISYSGITNYNPSLQGRVTISRDNSKNTLYLQMNSLRAEDTAVYYCARSLARTTAMDYWGEGTLVTVSSASTKGPSVFPLAPSSKSTSGGTAALGCLVKDYFPEPVTVSWNSGALTSGVHTFPAVLQSSGLYSLSSVVTVPSSSLGTQTYICNVNHKPSNTKVDKKVEPKSCDKTHTCPPCPAPELRGGPKVFLFPPKPKDTLYIARTPEVTCVVVDVSHEDPEVKFNWYVDGVEVHNAKTKPREEQYNSTYRVVSVLTVLHQDWLNGKEYKCKVSNKALPAPIEKTISKAKGQPREPQVYTLPPSRDELTKNQVSLTCLVKGFYPSDIAVEWESNGQPENNYKTTPPVLDSDGSFFLYSKLTVDKSRWQQGNVFSCSVMHEALDYHVTKKDLSLSP light: not shown | 170 nM |
| IgG1-F1276 (antibody, EU numbering; copies: 2 + 2) heavy: QVQLQESGPGLVKPSETLSLTCAVSGHSISHDHAWSWVRQPPGEGLEWIGFISYSGITNYNPSLQGRVTISRDNSKNTLYLQMNSLRAEDTAVYYCARSLARTTAMDYWGEGTLVTVSSASTKGPSVFPLAPSSKSTSGGTAALGCLVKDYFPEPVTVSWNSGALTSGVHTFPAVLQSSGLYSLSSVVTVPSSSLGTQTYICNVNHKPSNTKVDKKVEPKSCDKTHTCPPCPAPELRGGPKVFLFPPKPKDTLYISRAPEVTCVVVDVSHEDPEVKFNWYVDGVEVHNAKTKPREEQYNSTYRVVSVLTVLHQDWLNGKEYKCKVSNKALPAPIEKTISKAKGQPREPQVYTLPPSRDELTKNQVSLTCLVKGFYPSDIAVEWESNGQPENNYKTTPPVLDSDGSFFLYSKLTVDKSRWQQGNVFSCSVMHEALHYHVTKKDLSLSP light: not shown | 100 nM |
| IgG1-F1274 (antibody, EU numbering; copies: 2 + 2) heavy: QVQLQESGPGLVKPSETLSLTCAVSGHSISHDHAWSWVRQPPGEGLEWIGFISYSGITNYNPSLQGRVTISRDNSKNTLYLQMNSLRAEDTAVYYCARSLARTTAMDYWGEGTLVTVSSASTKGPSVFPLAPSSKSTSGGTAALGCLVKDYFPEPVTVSWNSGALTSGVHTFPAVLQSSGLYSLSSVVTVPSSSLGTQTYICNVNHKPSNTKVDKKVEPKSCDKTHTCPPCPAPELRGGPKVFLFPPKPKDTLYISRQPEVTCVVVDVSHEDPEVKFNWYVDGVEVHNAKTKPREEQYNSTYRVVSVLTVLHQDWLNGKEYKCKVSNKALPAPIEKTISKAKGQPREPQVYTLPPSRDELTKNQVSLTCLVKGFYPSDIAVEWESNGQPENNYKTTPPVLDSDGSFFLYSKLTVDKSRWQQGNVFSCSVMHEALDYHVTRKELSLSP light: not shown | 250 nM |
| IgG1-F1275 (antibody, EU numbering; copies: 2 + 2) heavy: QVQLQESGPGLVKPSETLSLTCAVSGHSISHDHAWSWVRQPPGEGLEWIGFISYSGITNYNPSLQGRVTISRDNSKNTLYLQMNSLRAEDTAVYYCARSLARTTAMDYWGEGTLVTVSSASTKGPSVFPLAPSSKSTSGGTAALGCLVKDYFPEPVTVSWNSGALTSGVHTFPAVLQSSGLYSLSSVVTVPSSSLGTQTYICNVNHKPSNTKVDKKVEPKSCDKTHTCPPCPAPELRGGPKVFLFPPKPKDTLYISRQPEVTCVVVDVSHEDPEVKFNWYVDGVEVHNAKTKPREEQYNSTYRVVSVLTVLHQDWLNGKEYKCKVSNKALPAPIEKTISKAKGQPREPQVYTLPPSRDELTKNQVSLTCLVKGFYPSDIAVEWESNGQPENNYKTTPPVLDSDGSFFLYSKLTVDKSRWQQGNVFSCSVMHEALDYHVTKKDLSLSP light: not shown | 210 nM |
| IgG1-F1273 (antibody, EU numbering; copies: 2 + 2) heavy: QVQLQESGPGLVKPSETLSLTCAVSGHSISHDHAWSWVRQPPGEGLEWIGFISYSGITNYNPSLQGRVTISRDNSKNTLYLQMNSLRAEDTAVYYCARSLARTTAMDYWGEGTLVTVSSASTKGPSVFPLAPSSKSTSGGTAALGCLVKDYFPEPVTVSWNSGALTSGVHTFPAVLQSSGLYSLSSVVTVPSSSLGTQTYICNVNHKPSNTKVDKKVEPKSCDKTHTCPPCPAPELRGGPKVFLFPPKPKDTLYISRQPEVTCVVVDVSHEDPEVKFNWYVDGVEVHNAKTKPREEQYNSTYRVVSVLTVLHQDWLNGKEYKCKVSNKALPAPIEKTISKAKGQPREPQVYTLPPSRDELTKNQVSLTCLVKGFYPSDIAVEWESNGQPENNYKTTPPVLDSDGSFFLYSKLTVDKSRWQQGNVFSCSVMHEALHYHVTKKDLSLSP light: not shown | 150 nM |

The next lines start with the values.

| Kd | Binder |
| --- | --- |
| 120 nM | IgG1-F1279 (antibody, EU numbering; copies: 2 + 2) heavy: QVQLQESGPGLVKPSETLSLTCAVSGHSISHDHAWSWVRQPPGEGLEWIGFISYSGITNYNPSLQGRVTISRDNSKNTLYLQMNSLRAEDTAVYYCARSLARTTAMDYWGEGTLVTVSSASTKGPSVFPLAPSSKSTSGGTAALGCLVKDYFPEPVTVSWNSGALTSGVHTFPAVLQSSGLYSLSSVVTVPSSSLGTQTYICNVNHKPSNTKVDKKVEPKSCDKTHTCPPCPAPELRGGPKVFLFPPKPKDTLYISRGPEVTCVVVDVSHEDPEVKFNWYVDGVEVHNAKTKPREEQYNSTYRVVSVLTVLHQDWLNGKEYKCKVSNKALPAPIEKTISKAKGQPREPQVYTLPPSRDELTKNQVSLTCLVKGFYPSDIAVEWESNGQPENNYKTTPPVLDSDGSFFLYSKLTVDKSRWQQGNVFSCSVMHEALHYHVTKKDLSLSP light: not shown |
| 170 nM | IgG1-F1281 (antibody, EU numbering; copies: 2 + 2) heavy: QVQLQESGPGLVKPSETLSLTCAVSGHSISHDHAWSWVRQPPGEGLEWIGFISYSGITNYNPSLQGRVTISRDNSKNTLYLQMNSLRAEDTAVYYCARSLARTTAMDYWGEGTLVTVSSASTKGPSVFPLAPSSKSTSGGTAALGCLVKDYFPEPVTVSWNSGALTSGVHTFPAVLQSSGLYSLSSVVTVPSSSLGTQTYICNVNHKPSNTKVDKKVEPKSCDKTHTCPPCPAPELRGGPKVFLFPPKPKDTLYISRGPEVTCVVVDVSHEDPEVKFNWYVDGVEVHNAKTKPREEQYNSTYRVVSVLTVLHQDWLNGKEYKCKVSNKALPAPIEKTISKAKGQPREPQVYTLPPSRDELTKNQVSLTCLVKGFYPSDIAVEWESNGQPENNYKTTPPVLDSDGSFFLYSKLTVDKSRWQQGNVFSCSVMHEALDYHVTKKDLSLSP light: not shown |
| 130 nM | IgG1-F1283 (antibody, EU numbering; copies: 2 + 2) heavy: QVQLQESGPGLVKPSETLSLTCAVSGHSISHDHAWSWVRQPPGEGLEWIGFISYSGITNYNPSLQGRVTISRDNSKNTLYLQMNSLRAEDTAVYYCARSLARTTAMDYWGEGTLVTVSSASTKGPSVFPLAPSSKSTSGGTAALGCLVKDYFPEPVTVSWNSGALTSGVHTFPAVLQSSGLYSLSSVVTVPSSSLGTQTYICNVNHKPSNTKVDKKVEPKSCDKTHTCPPCPAPELRGGPKVFLFPPKPKDTLYISRNPEVTCVVVDVSHEDPEVKFNWYVDGVEVHNAKTKPREEQYNSTYRVVSVLTVLHQDWLNGKEYKCKVSNKALPAPIEKTISKAKGQPREPQVYTLPPSRDELTKNQVSLTCLVKGFYPSDIAVEWESNGQPENNYKTTPPVLDSDGSFFLYSKLTVDKSRWQQGNVFSCSVMHEALDYHVTRKELSLSP light: not shown |
| 77 nM | IgG1-F1282 (antibody, EU numbering; copies: 2 + 2) heavy: QVQLQESGPGLVKPSETLSLTCAVSGHSISHDHAWSWVRQPPGEGLEWIGFISYSGITNYNPSLQGRVTISRDNSKNTLYLQMNSLRAEDTAVYYCARSLARTTAMDYWGEGTLVTVSSASTKGPSVFPLAPSSKSTSGGTAALGCLVKDYFPEPVTVSWNSGALTSGVHTFPAVLQSSGLYSLSSVVTVPSSSLGTQTYICNVNHKPSNTKVDKKVEPKSCDKTHTCPPCPAPELRGGPKVFLFPPKPKDTLYISRNPEVTCVVVDVSHEDPEVKFNWYVDGVEVHNAKTKPREEQYNSTYRVVSVLTVLHQDWLNGKEYKCKVSNKALPAPIEKTISKAKGQPREPQVYTLPPSRDELTKNQVSLTCLVKGFYPSDIAVEWESNGQPENNYKTTPPVLDSDGSFFLYSKLTVDKSRWQQGNVFSCSVMHEALHYHVTKKDLSLSP light: not shown |
| 210 nM | IgG1-F1280 (antibody, EU numbering; copies: 2 + 2) heavy: QVQLQESGPGLVKPSETLSLTCAVSGHSISHDHAWSWVRQPPGEGLEWIGFISYSGITNYNPSLQGRVTISRDNSKNTLYLQMNSLRAEDTAVYYCARSLARTTAMDYWGEGTLVTVSSASTKGPSVFPLAPSSKSTSGGTAALGCLVKDYFPEPVTVSWNSGALTSGVHTFPAVLQSSGLYSLSSVVTVPSSSLGTQTYICNVNHKPSNTKVDKKVEPKSCDKTHTCPPCPAPELRGGPKVFLFPPKPKDTLYISRGPEVTCVVVDVSHEDPEVKFNWYVDGVEVHNAKTKPREEQYNSTYRVVSVLTVLHQDWLNGKEYKCKVSNKALPAPIEKTISKAKGQPREPQVYTLPPSRDELTKNQVSLTCLVKGFYPSDIAVEWESNGQPENNYKTTPPVLDSDGSFFLYSKLTVDKSRWQQGNVFSCSVMHEALDYHVTRKELSLSP light: not shown |
| 170 nM | IgG1-F1277 (antibody, EU numbering; copies: 2 + 2) heavy: QVQLQESGPGLVKPSETLSLTCAVSGHSISHDHAWSWVRQPPGEGLEWIGFISYSGITNYNPSLQGRVTISRDNSKNTLYLQMNSLRAEDTAVYYCARSLARTTAMDYWGEGTLVTVSSASTKGPSVFPLAPSSKSTSGGTAALGCLVKDYFPEPVTVSWNSGALTSGVHTFPAVLQSSGLYSLSSVVTVPSSSLGTQTYICNVNHKPSNTKVDKKVEPKSCDKTHTCPPCPAPELRGGPKVFLFPPKPKDTLYISRAPEVTCVVVDVSHEDPEVKFNWYVDGVEVHNAKTKPREEQYNSTYRVVSVLTVLHQDWLNGKEYKCKVSNKALPAPIEKTISKAKGQPREPQVYTLPPSRDELTKNQVSLTCLVKGFYPSDIAVEWESNGQPENNYKTTPPVLDSDGSFFLYSKLTVDKSRWQQGNVFSCSVMHEALDYHVTRKELSLSP light: not shown |
